Assay: label from the status in PepcDB records

Sequence | protein production
MAKPVLVRNTEEMMMNLDFPTYIKVAELGCSSGQNSFLAIFEIINTINVLCQHVNKNSPEIDCCLNDLPENDFNTTFKFVPFFNKELMITNKSSCFVYGAPGSFYSRLFSRNSLHLIHSSYALHWLSKVPEKLENNKGNLYITSSSPQSAYKAYLNQFQKDFTMFLRLRSEEIVSNGRMVLTFIGRNTLNDPLYRDCCHFWTLLSNSLRDLVFEGLVSESKLDAFNMPFYDPNVQELKEVIQKEGSFEINELESHGFDLGHYYEEDDFEAGRNEANGIRAVSEPMLIAHFGEEIIDTLFDKYAYHVTQHANCRNKTTVSLVVSLTKK | failed
QPTIVLDTDYNIIAANTAYQRQFGVAGKPHVGAKCYRVSHQFAVPCDQAGEHCPMRKAHDSRVPERMLHIHHTPRGPEHVDVELRPIIGQDGTVVAYVERLSSVAVASVQPQQKG | failed
MTNKVKSKRIAAIDWMRGFVMIIMVLDHVSMAYNKEHLSTDSAASYIIGSPLPAFEFFTRWISHICAPVFVFLAGTALAISVERKLSRGFDSKAIDKDILLRGAFIALLDPTITSFFSGKLIFQVLYAIGIAMMCMAFFRRLSSTQLLIIAMAWILGGELVTAQFWFAGGQEQSIIVALLIGKYSSADLSISYALVPWLSVMILGWVFGRYILDYGDGKVTISPANLLFRLGFTALAAFIAIRYFNDYGNMFLLREDNSWQQWLHVSKYPPSASFIMLELGLMAVILALMIKVEQRIGVRPNGVLLVFGQTSMMFYLVHRIFLTGTATYGGLSDFTNLTNTYIISGVLLLLLFPFCIWYRSFKVKHPDSLWLKYL | failed
MSLVTYQTIKVRFQASVCYITFHRPEANNTINDTLIEECLQVLNQCETSTVTVVVLEGLPEVFCFGADFQEIYQEMKRGRKQASSQEPLYDLWMKLQTGPYVTISHVRGKVNAGGLGFVSATDIAIADQTASFSLSELLFGLYPACVLPFLIRRIGRQKAHYMTLMTKPISVQEASEWGLIDAFDAESDVLLRKHLLRLRRLNKKGIAHYKQFMSSLDHQVSRAKATALTANQDMFSDPQNQMGIIRYVETGQFPWEDQEGHHHHHH | not failed
MAVAGAVSGEPLVHWCTQQLRKTFGLDVSEEIIQYVLSIESAEEIREYVTDLLQGNEGKKGQFIEELITKWQKNDQELISDPLQQCFKKDEILDGQKSGDHLKRGRKKGRNRQEVPAFTEPDTTAEVKTPFDLAKAQENSNSVKKKTKFVNLYTREGQDRLAVLLPGRHPCDCLGQKHKLINNCLICGRIVCEQEGSGPCLFCGTLVCTHEEQDILQRDSNKSQKLLKKLMSGVENSGKVDISTKDLLPHQELRIKSGLEKAIKHKDKLLEFDRTSIRRTQVIDDESDYFASDSNQWLSKLERETLQKREEELRELRHASRLSKKVTIDFAGRKILEEENSLAEYHSRLDETIQAIANGTLNQPLTKLDRSSEEPLGVLVNPNMYQSPPQWVDHTGAASQKKAFRSSGFGLEFNSFQHQLRIQDQEFQEGFDGGWCLSVHQPWASLLVRGIKRVEGRSWYTPHRGRLWIAATAKKPSPQEVSELQATYRLLRGKDVEFPNDYPSGCLLGCVDLIDCLSQKQFKEQFPDISQESDSPFVFICKNPQEMVVKFPIKGNPKIWKLDSKIHQGAKKGLMKQNKAV | not failed
MLKTTKKSLLVFMGVFFLIFGVDQAIKYAILEGFRYESLMIDIVLVFNKGVAFSLLSFLEGGLKYLQILLILGLFIFLMRQRELFKNHAIEFGMVFGAGVSNVLDRFVHGGVVDYVYYHYGFDFAIFNFADVMIDVGVGVLLLKQFFFKQKQNKIKA | failed
MSDHPFSIQANLYLQLRHFIRLGMSKAEAIKLITYNNAKILGIEDKLGSLEKGKWASLVVWNGDPFNLENYPTHVFAEGELIHEANLLEHHHHHH | failed
HYRRALSGPVDPGLAVFSAYWDRGVSCNPAAIAAKLAELAPHIHPVWVVARNKAALLPPGTDHIVPGTRRYWEVMARAKYLVNNVNFPNSVVKRPDAIHLQTHHGTPLKRMGLDQREFPAASKGLDFGALLARIDKWDYSVSANSHSTRMWERAYPSHYISLDHGYPRNDVFYSATADDIRAIRDRLGIPPGRRAILYAPTHRDYEAGWTPRLDLASLADRLGEETVLLVRGHYFYGGAASPLAGLRRSGRVIDVSTYDPVEELCLAADALVTDYSSIMFDYANLNRPIVIYADDWETYAKTRGVYFDLMAEGPGQVTRTQDELAAVFESGAWRDEGARKALSAFRRRFCEFDDGRAAERVVR | failed
KSEIGKYAPFFSLPNAKGEKITRSSDAFKQKSLLINFWASWNDSISQKQSNSELREIYKKYKKNKYIGMLGISLDVDKQQWKDAIKRDTLDWEQVCDFGGLNSEVAKQYSIYKIPANILLSSDGKILAKNLRGEELKKKIENIVEEA | not failed
GSSGSSGMTPLVKDIIMSSTRMPALFLGHGSPMNVLEDNLYTRSWQKLGMTLPRPQAIVVVSAHWFTRGTGVTAMETPPTIHDFGGFPQALYDTHYPAPGSPALAQRLVELLAPIPVTLDKEAWGFDHGSWGVLIKMYPDADIPMVQLSIDSSKPAAWHFEMGRKLAALRDEGIMLVASGNVVHNLRTVKWHGDSSPYPWATSFNEYVKANLTWQGPVEQHPLVNYLDHEGGTLSNPTPEHYLPLLYVLGAWDGQEPITIPVEGIEMGSLSMLSVQIG | not failed
MTSYSLEDFNTPLECAPLARWERKRKEQLDRTSKTPNKTPQGDRFIPNRNVMNIEVSRLNLQQEYYGKENNQNSSSLLDSHMDNVEWNSGKDSPACHHYQSALASSLLQNSYHEEHPQSKILTFKQKAPKPQEGYVNSLKVLYSQNMPQISEQRKRMIRHIPQTPDRILDAPELVDDYYLNLLDWNHENILAVALGSSVYLWNASTGDIQELCNVSQDEMICSVSWVPDGHHLAVGTSMKDVQLWDTQRGRQVRKMHSHSSRVGCLAWNGPILSSGSRDTTIHHHDVRIAQHHVETLRGHEQEVCGLKWNVDGSQLASGGNDNLLMIWDHFHSNQPKYRLDHHHAAVKAIAWCPWQTHLLASGGGTADRTIKFWNTTTGACLQSIDTKSQVCALIWNRHDKEIVSSHGFSQNQLIVWKYPSMVKMAELTGHTSRVLHLSLSPDGQTVVSGAGDETLRFWRVFEASESKLKSSNKTLGHSQKSIMRTCNIR | not failed
MAQSINITELNLPQLEMLKNQLDQEVEFLSTSIAQLKVVQTKYVEAKDCLNVLNKSNEGKELLVPLTSSMYVPGKLHDVEHVLIDVGTGYYVEKTAEDAKDFFKRKIDFLTKQMEKIQPALQEKHAMKQAVMEMMSQKIQQLTALGAAQATVKA | failed
MRETVKLIEVARELPVSRKNLQMLLLLLLCGAAAYIINLADPALEPLFLALVFGIVAGNLQRDEEKKRVVERYVPFLLPIGITLYGVNINIPYLGEFHPEIVAATLISTSLIFLTVFWLSSRLKLSRQMSILLACGSGICGVSAIAIISPLIKPRKEEFSAAIMIITAVGLTGAILYPSIAHYASISPDEFAVLAGATLHQTGIVKISSQLFGVEEEALAIKGIRIAMIALVVLILSIIYSESRFYVPWYIVSFLGVALFSSTYLPGEVVQALRPLATVMFATTLAAICYTVNVGRVQRVGVKPLFASYAGWAVGVAFVLLLLGSGAL | failed
MPPAPVFLLLAAGASRRMRGADKLMEPVAGEPLLRLQARRGIAAGLAVLVTLPPDRPERWAALEGLAVQRLPVPDAAEGLAASIRAGVAAAPPDAAVLLLLADLPEIEATDLAQMAALHREAPKALLRATTADGRPGHPILFPADLRPELQALKGDQGARRILERAAGRLRLVPLAGTRAVTDLDTPEDWALWRARTGHLEHHHHHH | failed
MTADEWPQRLIRFTDWSHAEATAVEHLLPVLIAQESELAQWSFLRKHPWWRLRYRPACPDSAKALDAALDELVDAGVLASWTRGIYEPEETAFGGPAAMKIAHALFHYDSRHLLDEAARQQTVSGPRLGRRELAVLLLSVAMRAAGLDWYEQGDVWARIAAERSGDEVRSPQRHRAAVHRLMTVDVSTTSRSVARGRLAPLAEWIATFEWFGQQLADLNRQGRLERGLRAVIAHHGIFHFNRLGLAAQDQHTLSTLAKEVVMGTSDNAASTQAEGAPGATVNGVNSDTIEAPSADRLRAQLIDHLVETGCVRTPRVEEAMRTVPRHLFVPNAPLEKAYGNAPVDTKFDGSGRSISCASQPDIVAMMLEQLDVQPGQKILELGAGTGFNAGLLGYLVGETGHVTTIDVDEDIVAGARGGLAAAGIHNVEVILGDGAVGHTPNAPYDRIEATVGAHGVPHAWLDQLAPGGRLLTPLRLRGSVSRSIAFENQDGAWRSVGSQMNTFMPLRRGIADDPRLFVPLDPDHTVTLVTNGDQKVDADALGDIFRQPRTEAWTDVTFRGPESAEYLELWLTCAMPNGLSRMPAKNEAIEKGLVTAPYPSSTAVFEDGTLTYLTRRPYAKKAPDGATLYEFGVIGHGPDAEALAGDVADQIRAWDQDFRALDVGFEIQPLDAAPLAPKPGRFAFDNPLNRIVIEWQ | failed
MRITHLGHSCILVEAAGQRILVDPGNLSRSWRGLTDLDAILVTHRHPDHVDPEHIGALVDANSGAVVRAEEGACHEIPALDADPVAPGDVLQIGEVRIEAVGGRHAVIHRDLEPIGNVGYLIGEGLGTILYHPGDELDETPRGVDVLACPAHAPWAAMKETVDFARSVGARHGFLIHEGLLNGRGWQLSFDRHQEMVPTTFHDLRNGQPWEVPQDLEHHHHHH | failed
MAAPLIPVLTAPTAAGKTALALRLAREYGLEIVAADAFTVYRGLDLGTAKPTPQERASVPHHLLDVVDVTQSYDVAQYAAQAEAAIVDILARGRLPLVVGGTGFYLSALSRGLPLTPPSDPKMRAALEAELQERGLDALLAEIEQANPAEAARMERNPRRVVRALEVYRAAGRFPGEFGYSPPAFQYQVFAFSPPAAEMEQRVQERTAAMLRAGWPQEAQWLAGQVPPEQEPRPTVWQALGYAEALAVAQGRLSLAGAEQAIALATRQYGKRQLTWMRRQLGAEVQSPDAAEAHLRAFLERSGAPSLEHHHHHH | failed
MSQVHRILNCRGTRIHAVADSPPDQQGPLVVLLHGFPESWYSWRHQIPALAGAGYRVVAIDQRGYGRSSKYRVQKAYRIKELVGDVVGVLDSYGAEQAFVVGHDWGAPVAWTFAWLHPDRCAGVVGISVPFAGRGVIGLPGSPFGERRPSDYHLELAGPGRVWYQDYFAVQDGIITEIEEDLRGWLLGLTYTVSGEGMMAATKAAVDAGVDLESMDPIDVIRAGPLCMAEGARLKDAFVYPETMPAWFTEADLDFYTGEFERSGFGGPLSFYHNIDNDWHDLADQQGKPLTPPALFIGGQYDVGTIWGAQAIERAHEVMPNYRGTHMIADVGHWIQQEAPEETNRLLLDFLGGLRP | not failed
MIYWLSLASAAFIGLAALVWKMSAIARENRVLKAEFSLGRLKKELNVFFISDIHRRTVSEDIICEVKERGVQLVIIGGDLAEGGVPYTRIEENIKRLSSLGKTYFVWGNNDYEVDQERLLEIFKTYGVTPLRNASVLHDHQGQTVNICGVDDIRLELDDYPAALGGVQPGFPTVLVSHNPEIHHQIQEADGIDLILSGHTHGGQIRFGRFGLCEIGGTGTVFKAPYLISNGYGTSKLPLRLGARPETHLINLVPGPRMEGN | failed
MKKFVCTVCGYIHEGDAAPAQCPVCKVGADKFEEMKGEMVWADEHRIGVAQGVDAEIIEGLRANFTGECTEVGMYLAMSRQADREGYPEVAEAYKRIAFEEAEHAAKFAELLGEVVVADTKENLRVRVDAEYGATDGKLKLAKRAKELGLDAIHDTVHEMCKDEARHGKAFLGLLNRHFGKLEHHHHHH | not failed
MEANTSSSGTVTGQRFAERRRSLPPGAELRQRLLKQLKELCDQIGKAYSTLVQKAALVIEPADQAVSLEPDTQRQATCITNLSDEGELWTTVYELNLGVQNLLMFIEDIRLLLLTQAQVPGPSVEENGLKTAGKGGCSPTELEGARFSDRLSSSNTHRFLEQLWDRYTP | not failed
